For this data set, the target named is T1, alpha-fetoprotein (AFP) (Homo sapiens, UniProt P02771 19-609).
T1 sequence: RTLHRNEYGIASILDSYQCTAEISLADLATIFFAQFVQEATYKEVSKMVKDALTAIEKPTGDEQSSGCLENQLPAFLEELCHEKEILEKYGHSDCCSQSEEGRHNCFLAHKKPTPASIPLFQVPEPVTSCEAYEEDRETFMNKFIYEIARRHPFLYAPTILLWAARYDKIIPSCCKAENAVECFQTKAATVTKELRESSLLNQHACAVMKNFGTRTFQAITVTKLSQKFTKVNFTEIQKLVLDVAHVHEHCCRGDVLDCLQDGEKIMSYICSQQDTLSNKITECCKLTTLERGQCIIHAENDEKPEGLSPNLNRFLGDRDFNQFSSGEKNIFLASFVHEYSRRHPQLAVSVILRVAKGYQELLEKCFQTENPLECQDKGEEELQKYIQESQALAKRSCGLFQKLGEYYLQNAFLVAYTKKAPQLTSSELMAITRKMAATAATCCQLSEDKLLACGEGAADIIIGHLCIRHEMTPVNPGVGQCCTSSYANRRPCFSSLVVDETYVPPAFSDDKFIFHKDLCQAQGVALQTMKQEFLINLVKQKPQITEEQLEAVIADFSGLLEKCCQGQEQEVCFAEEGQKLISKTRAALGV
Briefly: thermofluorimetric analysis (EvaGreen melting curves); 1.25-80 nM and 1-5 nM aptamer; HEPES buffer with Na+, K+, Mg2+, Ca2+; 20 mM HEPES-Na, 120 mM NaCl, 4 mM KCl, 2 mM MgCl2, 1 mM CaCl2, pH 7.35 (aptamer diluent); 30 min at room temperature, then melt 4-80 C with EvaGreen; AFP stock. The settings on record: protein: recombinant; label: EvaGreen dye (non-covalent). For orientation: Differential scanning fluorimetry follows unfolding on heating by fluorescence.

B1: AP273 (ssDNA)
DNA: GTGACGCTCCTAACGCTGACTCAGGTGCAGTTCTCGACTCGGTCTTGATGTGGGTCCTGTCCGTCCGAACCAATC
For B1, the binding result is given as “binds”.

These data come from publication PMC10204870, “Analysis of aptamer-target binding and molecular mechanisms by thermofluorimetric analysis and molecular dynamics simulation”.
